Laboratory results from paper PMC6041441, “WRKY1 acts as a key component improving resistance against Alternaria solani in wild tomato, Solanum arcanum Peralta”.

T1: rSaWRKY1 (Solanum arcanum Peralta (accession not …, UniProt A0A1P8NTG4 1-410))
T1 sequence: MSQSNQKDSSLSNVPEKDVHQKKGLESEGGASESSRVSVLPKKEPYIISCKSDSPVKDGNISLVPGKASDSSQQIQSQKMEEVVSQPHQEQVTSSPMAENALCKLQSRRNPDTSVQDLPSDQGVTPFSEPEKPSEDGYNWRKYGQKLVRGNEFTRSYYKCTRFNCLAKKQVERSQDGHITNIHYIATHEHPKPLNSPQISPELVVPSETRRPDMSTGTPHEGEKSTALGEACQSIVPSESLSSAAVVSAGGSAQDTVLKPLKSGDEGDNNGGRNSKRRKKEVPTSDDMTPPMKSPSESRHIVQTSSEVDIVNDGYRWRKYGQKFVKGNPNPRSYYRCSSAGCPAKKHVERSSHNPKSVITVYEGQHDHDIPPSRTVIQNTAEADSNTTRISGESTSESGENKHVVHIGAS

B1: 4xW-box (dsDNA)
DNA 1: AAAAAATTGACCAAATTGACTCCAATTGACCAAATTGACCAAACACCACCTCCCACCTATAAAAAA
DNA 2: TTTTTTATAGGTGGGAGGTGGTGTTTGGTCAATTTGGTCAATTGGAGTCAATTTGGTCAATTTTTT
B2: mutated 4xW-box (4xmWbox) (dsDNA)
DNA 1: AAAAAATTTACCAAATTTACTCCAATTTACCAAATTTACCAAACACCACCTCCCACCTATAAAAAA
DNA 2: TTTTTTATAGGTGGGAGGTGGTGTTTGGTAAATTTGGTAAATTGGAGTAAATTTGGTAAATTTTTT

Molecular target: T1, rSaWRKY1
Assay: EMSA; 10 ug protein; 10x binding buffer: 0.10 mg/mL BSA, 1 mM DTT, 10 mM EDTA, 50% glycerol, 1 M KCl, 100 mM Tris-HCl pH 7.5 (stock as printed; working dilution not stated); 25 C, 30 min; 2% agarose gel, GelRed
Details: protein: recombinant; recombinant protein 62.6 kDa; label: none (GelRed stain); blunt

Row | Binder | binding result
1 | B1 | binds
2 | B2 | no binding
